In general, stoichiometry N refers to a count of units in the complex or per binding partner.

For assay [1], the target named is collagen VI monomer with the wild-type murine collagen VI α3 chain (N9-C5) (mouse | human (endogenous in SaOS-2)) (UniProt P12109). Put plainly: non-reducing agarose/polyacrylamide composite gel electrophoresis with immunoblot; culture medium (4-14 days) and cell extracts of transfected SaOS-2 cells, SDS loading buffer with 2 M urea, non-reducing, 0.5% agarose/2.4% polyacrylamide; detected with an antibody against the α3 C terminus; sizes from purified collagen VI as a standard; monomers to tetramers.

The target of assay [2] is collagen VI monomer with the murine collagen VI α3 chain (N9-C5) carrying the R1061Q mutation (mouse | human (endogenous in SaOS-2)). The assay is described as above.

Regarding “collagen VI monomer with the wild-type murine collagen VI α3 chain (N9-C5) (from UniProt P12109 20-1028; P12110 21-1019) (complex)”, in assay [1], the stoichiometry N came to 4.
As for “collagen VI monomer with the murine collagen VI α3 chain (N9-C5) carrying the R1061Q mutation (from UniProt P12109 20-1028; P12110 21-1019) (complex)”, the stoichiometry N in assay [2] came to 4.
